Assay results: PMC10707181, “Neuronal Scaffold Protein ARMS Interacts with Synaptotagmin-4 C2AB through the Ankyrin Repeat Domain with an Unexpected Mode” (International Journal of Molecular Sciences, 2023)

T1: full length of the cytoplasmic region of Syt4 (CD, residues 41–425) (human, UniProt Q9H2B2-1 41-425)
T1 construct: also called Synaptotagmin-4 CD; source: E. coli BL21 (DE3), purified (Ni-NTA, size-exclusion chromatography)
T1 sequence (looked up): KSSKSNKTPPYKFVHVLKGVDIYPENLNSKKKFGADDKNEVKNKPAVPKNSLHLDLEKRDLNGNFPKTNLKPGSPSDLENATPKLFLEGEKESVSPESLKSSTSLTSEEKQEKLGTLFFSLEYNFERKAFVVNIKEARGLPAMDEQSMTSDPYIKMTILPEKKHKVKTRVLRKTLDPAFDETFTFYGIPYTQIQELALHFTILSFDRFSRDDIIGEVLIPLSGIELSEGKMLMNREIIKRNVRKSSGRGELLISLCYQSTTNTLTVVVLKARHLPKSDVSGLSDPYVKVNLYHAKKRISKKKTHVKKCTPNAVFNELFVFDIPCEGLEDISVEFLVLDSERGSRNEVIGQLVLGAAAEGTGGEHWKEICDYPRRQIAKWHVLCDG

T2: Syt4 132–425 (human, UniProt Q9H2B2-1 132-425)
T2 chain: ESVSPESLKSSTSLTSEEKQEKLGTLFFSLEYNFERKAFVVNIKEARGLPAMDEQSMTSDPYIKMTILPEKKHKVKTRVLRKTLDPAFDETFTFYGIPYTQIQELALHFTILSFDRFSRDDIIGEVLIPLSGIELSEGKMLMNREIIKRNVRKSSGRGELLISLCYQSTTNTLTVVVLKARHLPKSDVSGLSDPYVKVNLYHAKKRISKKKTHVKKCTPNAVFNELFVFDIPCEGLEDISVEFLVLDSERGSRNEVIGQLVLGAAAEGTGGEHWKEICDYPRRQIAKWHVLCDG

T3: Syt4 132-425 R283A (Homo sapiens)
T3 chain: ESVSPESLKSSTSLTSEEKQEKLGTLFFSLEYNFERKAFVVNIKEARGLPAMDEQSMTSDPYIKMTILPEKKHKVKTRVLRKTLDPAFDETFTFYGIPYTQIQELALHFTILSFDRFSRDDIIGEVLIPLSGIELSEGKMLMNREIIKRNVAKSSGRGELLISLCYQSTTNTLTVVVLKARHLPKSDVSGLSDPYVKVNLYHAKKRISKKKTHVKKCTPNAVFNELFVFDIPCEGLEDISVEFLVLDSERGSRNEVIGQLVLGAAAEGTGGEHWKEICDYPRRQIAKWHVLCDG

T4: Syt4 132-425 K279A,R280A (Homo sapiens)
T4 chain: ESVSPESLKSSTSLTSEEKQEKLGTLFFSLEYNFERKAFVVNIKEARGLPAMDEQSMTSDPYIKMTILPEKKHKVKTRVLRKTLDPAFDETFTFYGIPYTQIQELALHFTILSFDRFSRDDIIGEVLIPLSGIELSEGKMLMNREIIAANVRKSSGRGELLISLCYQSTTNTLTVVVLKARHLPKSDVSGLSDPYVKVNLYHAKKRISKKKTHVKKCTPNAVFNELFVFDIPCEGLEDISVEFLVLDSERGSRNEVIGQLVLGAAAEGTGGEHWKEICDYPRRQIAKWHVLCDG

T5: Syt4 132–425 Q186A (human, UniProt Q9H2B2-1 132-425, Q186A)
T5 sequence: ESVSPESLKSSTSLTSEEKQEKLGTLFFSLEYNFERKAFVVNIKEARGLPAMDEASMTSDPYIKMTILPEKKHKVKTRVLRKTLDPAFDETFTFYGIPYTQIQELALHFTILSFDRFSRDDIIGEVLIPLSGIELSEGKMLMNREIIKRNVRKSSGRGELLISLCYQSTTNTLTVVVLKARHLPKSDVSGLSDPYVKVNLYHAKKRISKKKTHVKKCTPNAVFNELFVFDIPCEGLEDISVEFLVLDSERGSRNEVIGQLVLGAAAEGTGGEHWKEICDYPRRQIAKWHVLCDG

T6: Syt4 132-425 R283A,K284A (Homo sapiens)
T6 chain: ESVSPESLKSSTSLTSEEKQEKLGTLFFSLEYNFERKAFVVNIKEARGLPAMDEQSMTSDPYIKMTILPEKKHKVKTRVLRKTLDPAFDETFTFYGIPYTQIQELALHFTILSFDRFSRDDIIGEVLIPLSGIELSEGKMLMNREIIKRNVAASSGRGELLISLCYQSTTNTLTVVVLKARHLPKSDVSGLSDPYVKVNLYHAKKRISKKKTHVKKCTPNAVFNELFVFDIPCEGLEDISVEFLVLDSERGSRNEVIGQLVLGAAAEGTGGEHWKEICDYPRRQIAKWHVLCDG

T7: Syt4 132-425 R288A (Homo sapiens)
T7 chain: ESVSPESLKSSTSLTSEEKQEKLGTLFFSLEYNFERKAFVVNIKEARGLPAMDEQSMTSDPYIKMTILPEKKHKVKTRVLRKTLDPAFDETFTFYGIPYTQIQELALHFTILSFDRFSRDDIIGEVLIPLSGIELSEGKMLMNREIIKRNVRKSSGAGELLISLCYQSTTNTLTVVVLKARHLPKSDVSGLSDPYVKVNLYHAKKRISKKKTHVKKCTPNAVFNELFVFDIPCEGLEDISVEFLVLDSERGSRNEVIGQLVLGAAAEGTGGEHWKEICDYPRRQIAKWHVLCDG

T8: Syt4 132–425 K284A (human, UniProt Q9H2B2-1 132-425, K284A)
T8 sequence: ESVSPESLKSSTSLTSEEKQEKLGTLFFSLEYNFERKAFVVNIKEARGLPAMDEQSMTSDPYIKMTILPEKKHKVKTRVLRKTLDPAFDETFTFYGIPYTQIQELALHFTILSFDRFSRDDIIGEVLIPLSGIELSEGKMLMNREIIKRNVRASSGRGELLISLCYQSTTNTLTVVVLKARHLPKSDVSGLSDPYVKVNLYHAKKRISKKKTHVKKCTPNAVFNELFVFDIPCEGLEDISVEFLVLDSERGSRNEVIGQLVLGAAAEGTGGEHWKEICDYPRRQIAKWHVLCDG

T9: Syt4 132-425 K279A,R280A,R283A (Homo sapiens)
T9 chain: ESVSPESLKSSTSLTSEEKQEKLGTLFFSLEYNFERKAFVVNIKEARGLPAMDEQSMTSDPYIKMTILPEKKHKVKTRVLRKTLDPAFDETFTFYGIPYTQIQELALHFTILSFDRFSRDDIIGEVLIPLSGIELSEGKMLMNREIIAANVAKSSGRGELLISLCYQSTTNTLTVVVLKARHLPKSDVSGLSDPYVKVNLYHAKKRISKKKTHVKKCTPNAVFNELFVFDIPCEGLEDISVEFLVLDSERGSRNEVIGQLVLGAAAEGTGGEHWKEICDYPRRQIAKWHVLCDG

T10: Syt4 C2AB (residues 151–425) (human, UniProt Q9H2B2-1 151-425)
T10 construct: also called Syt4 CAB; source: E. coli BL21 (DE3), purified (Ni-NTA, size-exclusion chromatography)
T10 sequence (looked up): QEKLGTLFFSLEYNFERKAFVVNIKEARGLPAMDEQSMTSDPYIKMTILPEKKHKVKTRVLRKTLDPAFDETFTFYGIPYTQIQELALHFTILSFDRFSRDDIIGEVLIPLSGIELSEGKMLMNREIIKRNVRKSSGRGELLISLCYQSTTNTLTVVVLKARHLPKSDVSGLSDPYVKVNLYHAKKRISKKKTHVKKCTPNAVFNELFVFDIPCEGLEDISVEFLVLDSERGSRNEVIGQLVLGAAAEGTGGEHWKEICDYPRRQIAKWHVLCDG


How the values were obtained:
[1] = biological target: T1, full length of the cytoplasmic region …; test: ITC; ARMS proteins (200 μM) in the syringe, Syt4 proteins (20 μM) in the cell; 25 °C; 50 mM Tris, 100 mM NaCl, 1 mM EDTA, 1 mM DTT, pH 7.8; one-site binding model; settings: both partners purified
Syt4 132–425 = biological target: T2, Syt4 132–425; test: ITC
Syt4 132-425 R283A = biological target: T3, Syt4 132-425 R283A; test: ITC
Syt4 132-425 K279A,R280A = biological target: T4, Syt4 132-425 K279A,R280A; test: ITC
Syt4 132–425 Q186A = biological target: T5, Syt4 132–425 Q186A; test: ITC
Syt4 132-425 R283A,K284A = biological target: T6, Syt4 132-425 R283A,K284A; test: ITC
Syt4 132-425 R288A = biological target: T7, Syt4 132-425 R288A; test: ITC
Syt4 132–425 K284A = biological target: T8, Syt4 132–425 K284A; test: ITC
[2] = biological target: T9, Syt4 132-425 K279A,R280A,R283A; test: ITC
[3] = biological target: T10, Syt4 C2AB (residues 151–425); test: ITC; ARMS proteins (200 μM) in the syringe, Syt4 proteins (20 μM) in the cell; 25 °C; 50 mM Tris, 100 mM NaCl, 1 mM EDTA, 1 mM DTT, pH 7.8; one-site binding model; settings: both partners purified

| Binder | Kd [1] | Kd (Syt4 132–425) | Kd (Syt4 132-425 R283A) | Kd (Syt4 132-425 K279A,R280A) | Kd (Syt4 132–425 Q186A) | Kd (Syt4 132-425 R283A,K284A) | Kd (Syt4 132-425 R288A) | Kd (Syt4 132–425 K284A) | Kd [2] | Kd [3] |
| --- | --- | --- | --- | --- | --- | --- | --- | --- | --- | --- |
| ARMS ankyrin repeats 1–11 (R1-11, residues 1–365) (domain or fragment, rat, UniProt Q9EQG6 1-365, looked up, ARMS (Kidins220), rat, UniProt Q9EQG6, residues 1-365: ankyrin repeats 1-11; also called ARMS R1-11; ARMS R1-11 WT; source: E. coli BL21 (DE3), purified (Ni-NTA, size-exclusion chromatography)) MSVLISQSVINYVEEENIPALKALLEKCKDVDERNECGQTPLMLAAEQGNVEIVKELLKNGANCNLEDLDNWTALISASKEGHIHIVEELLKSGASLEHRDMGGWTALMWACYKGRTDVVELLLSHGANPSVTGLYSVYPIIWAAGRGHADIVHLLLQNGAKVNCSDKYGTTPLVWAARKGHLECVKHLLAMGADVDQEGANSMTALIVAVKGGYTQSVKEILKRNPNVNLTDKDGNTALMIASKEGHIEIVQDLLDAGTYVNIPDRSGDTVLIGAVRGGHVEIVRALLQKYADIDIRGQDNKTALYWAVEKGNATMVRDILQCNPDTEICTKDGETPLIKATKMRNIEVVELLLDKGAKVSAVD | ~11 µM | 12 µM | 4 µM | 9 µM | 3 µM | 4 µM | 10 µM | 3 µM | 19 µM |  |
| ARMS R1-8 (residues 1–270) (domain or fragment, rat, UniProt Q9EQG6 1-270, looked up, ARMS (Kidins220), rat, UniProt Q9EQG6, residues 1-270: ankyrin repeats 1-8; also called ARMS ankyrin repeats 1–8; source: E. coli BL21 (DE3), purified (Ni-NTA, size-exclusion chromatography)) MSVLISQSVINYVEEENIPALKALLEKCKDVDERNECGQTPLMLAAEQGNVEIVKELLKNGANCNLEDLDNWTALISASKEGHIHIVEELLKSGASLEHRDMGGWTALMWACYKGRTDVVELLLSHGANPSVTGLYSVYPIIWAAGRGHADIVHLLLQNGAKVNCSDKYGTTPLVWAARKGHLECVKHLLAMGADVDQEGANSMTALIVAVKGGYTQSVKEILKRNPNVNLTDKDGNTALMIASKEGHIEIVQDLLDAGTYVNIPDRSGD |  |  |  |  |  |  |  |  |  | ~11 µM |
